Where two headings read alike, the source gives them in different places.
Key:
[1] = biological target: TSHR with Arg109 mutated to Ala, expressed in CHO cells (human) (UniProt P16473); assay: cell-based or functional assay
[2] = biological target: TSHR with Asp203 mutated to Ala expressed in CHO cells (human) (UniProt P16473); assay: cell-based or functional assay
[3] = biological target: TSHR with Lys129 mutated to Ala, expressed in CHO cells (human) (UniProt P16473); assay: cell-based or functional assay
[4] = biological target: TSHR with Lys58 mutated to Ala expressed in CHO cells (human) (UniProt P16473); assay: cell-based or functional assay
[5] = biological target: TSHR with Tyr185 mutated to Ala (human) (UniProt P16473); assay: cell-based or functional assay
wild type TSHR (human) [6] = biological target: wild type TSHR (human) (UniProt P16473); assay: cell-based or functional assay
[7] = biological target: TSHR with Lys209 mutated to Ala (human) (UniProt P16473); assay: cell-based or functional assay
wild type TSHR (human) [8] = biological target: wild type TSHR (human) (UniProt P16473); assay: cell-based or functional assay; remark: listed apart in the source
[9] = biological target: full length wild type human TSHR (human) (UniProt P16473); assay: TSHR260-AP bridge ELISA, wild type TSHR on wells; IgG at 1 µg/mL in HBD
[10] = biological target: full length human TSHR with mutation Arg255 Asp (human) (UniProt P16473); assay: TSHR260-AP bridge ELISA, Arg255 Asp TSHR on wells; IgG at 1 µg/mL in HBD
[11] = biological target: full length human TSHR with mutation Arg255 Asp (human) (UniProt P16473); assay: TSHR260-AP bridge ELISA, Arg255 Asp TSHR on wells; IgG at 0.1 µg/mL in HBD
[12] = biological target: full length wild type human TSHR (human) (UniProt P16473); assay: TSHR260-AP bridge ELISA, wild type TSHR on wells; IgG at 0.01 µg/mL in HBD
[13] = biological target: full length human TSHR with mutation Arg255 Asp (human) (UniProt P16473); assay: TSHR260-AP bridge ELISA, Arg255 Asp TSHR on wells; IgG at 0.01 µg/mL in HBD
[14] = biological target: full length wild type human TSHR (human) (UniProt P16473); assay: TSHR260-AP bridge ELISA, wild type TSHR on wells; IgG at 0.005 µg/mL in HBD
[15] = biological target: TSH receptor (TSHR), full length human, coated on tubes (human) (UniProt P16473); assay: inhibition of 125I-TSH binding to TSHR coated tubes; 1 µg/mL, diluted in HBD serum pool
[16] = biological target: thyroid stimulating hormone receptor (TSHR), full length, coated on tubes (human) (UniProt P16473); assay: inhibition of 125I-TSH binding, TSHR coated tubes; antibody 100 µg/mL in HBD serum pool
[17] = biological target: human thyroid stimulating hormone receptor (TSHR), full length (human) (UniProt P16473); assay: 125I-K1-70 Fab (competitor) binding to TSHR coated tubes; test sample 1 µg/mL in HBD serum
[18] = biological target: TSHR260-alkaline phosphatase (TSHR260-AP) (human) (UniProt P05187); assay: TSHR260-AP bridge ELISA, full length TSHR on wells; 0.05 µg/mL, diluted in HBD
[19] = biological target: TSHR260-alkaline phosphatase (TSHR260-AP) (human) (UniProt P05187); assay: TSHR260-AP bridge ELISA, full length TSHR on wells; 0.005 µg/mL, diluted in HBD
[20] = biological target: TSHR260-alkaline phosphatase (TSHR260-AP) (human) (UniProt P05187); assay: TSHR260-AP bridge ELISA, full length TSHR on wells; 0.1 µg/mL, diluted in assay buffer
[21] = biological target: TSHR260-alkaline phosphatase (TSHR260-AP) (human) (UniProt P05187); assay: TSHR260-AP bridge ELISA, full length TSHR on wells; 100 µg/mL, diluted in assay buffer
TSHR260-AP (human) = assay: TSHR260-AP bridge ELISA (full length TSHR on wells, TSHR260-AP in solution); IgG 100 µg/mL diluted in assay buffer

With TSH (ligand) the % inhibition of TSH stimulation; TSH (2) control; Experiment 1 [1] was 0%, the % inhibition of TSH stimulation; TSH (2) control; Experiment 2 [1] was 6% and the Cyclic AMP produced; TSH 3 ng/mL; Experiment 1 [1] was 32.9 pmol/mL. For the same molecule, the Cyclic AMP produced; TSH 3 ng/mL; Experiment 2 [1] was 53.4 pmol/mL, the Cyclic AMP produced; TSH (2); Experiment 1 [1] was 33.3 pmol/mL and the Cyclic AMP produced; TSH (2); Experiment 2 [1] was 50.4 pmol/mL. It also gave a Mutated/wild type (%) of cyclic AMP produced; TSH 3 ng/mL; Experiment 1 [1] of 49%, a Mutated/wild type (%) of cyclic AMP produced; TSH 3 ng/mL; Experiment 2 [1] of 88% and a Mutated/wild type (%) of cyclic AMP produced; TSH (2); Experiment 1 [1] of 49%. It also gave a Mutated/wild type (%) of cyclic AMP produced; TSH (2); Experiment 2 [1] of 74%, a Cyclic AMP produced (pmol/mL), 0.01 ng/mL TSH [2] of 5.3 pmol/mL and a Cyclic AMP produced (pmol/mL), 0.03 ng/mL TSH [2] of 7.13 pmol/mL. The Cyclic AMP produced (pmol/mL), 0.1 ng/mL TSH [2] was 13 pmol/mL, the Cyclic AMP produced (pmol/mL), 0.3 ng/mL TSH [2] was 33.8 pmol/mL and the Cyclic AMP produced (pmol/mL), 1 ng/mL TSH [2] was 58.6 pmol/mL. It also gave a Cyclic AMP produced (pmol/mL), 3 ng/mL TSH [2] of 69.3 pmol/mL, a Mutated/Wild type (%) of cyclic AMP produced, 0.01 ng/mL TSH [2] of 231% and a Mutated/Wild type (%) of cyclic AMP produced, 0.03 ng/mL TSH [2] of 200%. For the same molecule, the Mutated/Wild type (%) of cyclic AMP produced, 0.1 ng/mL TSH [2] was 154%, the Mutated/Wild type (%) of cyclic AMP produced, 0.3 ng/mL TSH [2] was 128% and the Mutated/Wild type (%) of cyclic AMP produced, 1 ng/mL TSH [2] was 89%. For the same molecule, the Mutated/Wild type (%) of cyclic AMP produced, 3 ng/mL TSH [2] was 90%, the % inhibition of TSH stimulation; TSH (2) control [3] was 3% and the Cyclic AMP produced; TSH 3 ng/mL [3] was 49.2 pmol/mL. The Cyclic AMP produced; TSH (2) [3] was 47.9 pmol/mL, the Mutated/wild type (%) of cyclic AMP produced; TSH 3 ng/mL [3] was 98% and the Mutated/wild type (%) of cyclic AMP produced; TSH (2) [3] was 90%. For the same molecule, the % inhibition of TSH stimulation; TSH (2); Experiment 1 [4] was 0%, the % inhibition of TSH stimulation; TSH (2); Experiment 2 [4] was 1% and the Cyclic AMP produced; TSH 3 ng/mL; Experiment 1 [4] was 78.5 pmol/mL. It also gave a Cyclic AMP produced; TSH 3 ng/mL; Experiment 2 [4] of 96.8 pmol/mL, a Cyclic AMP produced; TSH (2); Experiment 1 [4] of 85.2 pmol/mL and a Cyclic AMP produced; TSH (2); Experiment 2 [4] of 95.8 pmol/mL. It also gave a Mutated/wild type (%) of cyclic AMP produced; TSH 3 ng/mL; Experiment 1 [4] of 114%, a Mutated/wild type (%) of cyclic AMP produced; TSH 3 ng/mL; Experiment 2 [4] of 99% and a Mutated/wild type (%) of cyclic AMP produced; TSH (2); Experiment 1 [4] of 115%. The Mutated/wild type (%) of cyclic AMP produced; TSH (2); Experiment 2 [4] was 94%, the % inhibition of TSH stimulation, TSH (2) run at the end of assay, mutated TSHR [5] was 22% and the Cyclic AMP produced (pmol/mL), TSH 3 ng/mL, mutated TSHR [5] was 52.5 pmol/mL. It also gave a Cyclic AMP produced (pmol/mL), TSH (2) 3 ng/mL run at the end of assay, mutated TSHR [5] of 41 pmol/mL, a Mutated/wild type (%) of cyclic AMP produced; TSH 3 ng/mL [5] of 52% and a Mutated/wild type (%) of cyclic AMP produced; TSH (2) 3 ng/mL, run at the end of assay [5] of 31.2%. The % inhibition of TSH stimulation, TSH (2) run at the end of assay, wild type TSHR (wild type TSHR (human) [6]) was 0%, the Cyclic AMP produced (mean of duplicate), TSH 3 ng/mL (wild type TSHR (human) [6]) was 88 pmol/mL and the Cyclic AMP produced (pmol/mL), TSH 3 ng/mL, wild type TSHR (wild type TSHR (human) [6]) was 101 pmol/mL. The Cyclic AMP produced (pmol/mL), TSH (2) 3 ng/mL run at the end of assay, wild type TSHR (wild type TSHR (human) [6]) was 131 pmol/mL, the Cyclic AMP produced, TSH 0.01 ng/mL, Experiment 1 (wild type TSHR (human) [6]) was 1.22 pmol/mL and the Cyclic AMP produced, TSH 0.01 ng/mL, Experiment 2 (wild type TSHR (human) [6]) was 2.02 pmol/mL. For the same molecule, the Cyclic AMP produced, TSH 0.03 ng/mL, Experiment 1 (wild type TSHR (human) [6]) was 1.85 pmol/mL, the Cyclic AMP produced, TSH 0.03 ng/mL, Experiment 2 (wild type TSHR (human) [6]) was 1.96 pmol/mL and the Cyclic AMP produced, TSH 0.1 ng/mL, Experiment 1 (wild type TSHR (human) [6]) was 4.89 pmol/mL. It also gave a Cyclic AMP produced, TSH 0.1 ng/mL, Experiment 2 (wild type TSHR (human) [6]) of 4.49 pmol/mL, a Cyclic AMP produced, TSH 0.3 ng/mL, Experiment 1 (wild type TSHR (human) [6]) of 17.4 pmol/mL and a Cyclic AMP produced, TSH 0.3 ng/mL, Experiment 2 (wild type TSHR (human) [6]) of 13.5 pmol/mL. For the same molecule, the Cyclic AMP produced, TSH 1 ng/mL, Experiment 1 (wild type TSHR (human) [6]) was 52.9 pmol/mL, the Cyclic AMP produced, TSH 1 ng/mL, Experiment 2 (wild type TSHR (human) [6]) was 43.2 pmol/mL and the Cyclic AMP produced; TSH 3 ng/mL; Experiment 1 (wild type TSHR (human) [6]) was 70.6 pmol/mL. It also gave a Cyclic AMP produced; TSH 3 ng/mL; Experiment 2 (wild type TSHR (human) [6]) of 84.8 pmol/mL, a % inhibition of TSH stimulation, TSH (2) run at the end of assay, mutated TSHR [7] of 18% and a Cyclic AMP produced (pmol/mL), TSH 3 ng/mL, mutated TSHR [7] of 57.9 pmol/mL. The Cyclic AMP produced (pmol/mL), TSH (2) 3 ng/mL run at the end of assay, mutated TSHR [7] was 47.7 pmol/mL, the Mutated/wild type (%) of cyclic AMP produced; TSH 3 ng/mL [7] was 73% and the Mutated/wild type (%) of cyclic AMP produced; TSH (2) 3 ng/mL, run at the end of assay [7] was 52%. The Cyclic AMP produced (pmol/mL), TSH 3 ng/mL, wild type TSHR (wild type TSHR (human) [8]) was 79 pmol/mL and the Cyclic AMP produced (pmol/mL), TSH (2) 3 ng/mL run at the end of assay, wild type TSHR (wild type TSHR (human) [8]) was 91.5 pmol/mL.

With 9D33 IgG (antibody) the Mean absorbance at 405 nm (absorbance at 405 nm) [9] was 0.329, the Mean absorbance at 405 nm (absorbance at 405 nm) [10] was 0.322 and the Mean absorbance at 405 nm (absorbance at 405 nm) [11] was 0.053. The Mean absorbance at 405 nm (absorbance at 405 nm) [12] was 0.011, the Mean absorbance at 405 nm (absorbance at 405 nm) [13] was -0.004 and the Mean absorbance at 405 nm (absorbance at 405 nm) [14] was 0.006. It also gave an Inhibition of binding (%) [15] of 50.8%, an Inhibition of binding (%) [16] of 67.4% and an Inhibition of binding (%) [17] of 38.8%.

B1: 5C9 IgG (antibody, from another filing, V domains shown)
VH: EVQLVESGGGLIQPGGSLRLSCAASGFTVSSNYMSWVRQAPGKGLEWVSVTYSGGSTSYADSVKGRFTISRDNSKNTLYLQMNSLRAEDTAVYYCARGGRYCSSISCYARSGCDYWGQGTLVTVSS
VL: AIQMTQSPSSLSASVGDRVTITCRASQSISNYLNWYQQKPGKAPKLLIYAASSLQSGVPSRFSGSGSGTDFTLTISSLQPEDFATYYCQQSYSSPSTTFGQGTKLEIK
Molecule B1 has a Mean absorbance at 405 nm (absorbance at 405 nm) [18] of -0.003, a Mean absorbance at 405 nm (absorbance at 405 nm) [19] of 0.02 and a Mean absorbance at 405 nm (absorbance at 405 nm) [20] of -0.013. It also gave a Mean absorbance at 405 nm (absorbance at 405 nm) [21] of 0.669, an Inhibition of binding (%) [16] of 35.3% and an Inhibition of binding (%) [17] of 8.1%. For the same molecule, the Mean absorbance at 405 nm (absorbance at 405 nm) (TSHR260-AP (human)) was 0.669.

From patent US20110300138A1 (published 2011)
